Source: US20140051834A1, “Incretin Receptor Ligand Polypeptide Fc-Region Fusion Polypeptides And Conjugates With Altered Fc-Effector Function” (Hoffman-La Roche, Inc., priority 2012, published 2014)
pKd: −log10 of the molar value.

How the values were obtained:
[1] = target: FcγRIIA-R131 (human) (UniProt P12318); assay: SPR (BIAcore T100, 25 °C); antibody immobilised, receptor as analyte, steady state fit
[2] = target: FcγRI (human) (UniProt P12314); assay: SPR (BIAcore T100, 25 °C); FcγRI captured by pentaHis antibody, antibody as analyte
[3] = target: FcγRIIIA-V158 (human) (UniProt P08637); assay: SPR (BIAcore T100, 25 °C); antibody immobilised, receptor as analyte, steady state fit
Chain of FcγRIIIA-V158 (human) (P08637 17-208 F176V limits assumed): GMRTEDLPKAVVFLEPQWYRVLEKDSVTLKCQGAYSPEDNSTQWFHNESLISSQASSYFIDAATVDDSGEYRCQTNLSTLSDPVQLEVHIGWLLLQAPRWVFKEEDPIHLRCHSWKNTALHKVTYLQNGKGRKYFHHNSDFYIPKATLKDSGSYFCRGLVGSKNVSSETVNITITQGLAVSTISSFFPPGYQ

Chain of FcγRI (human) (P12314 16-288 limits assumed): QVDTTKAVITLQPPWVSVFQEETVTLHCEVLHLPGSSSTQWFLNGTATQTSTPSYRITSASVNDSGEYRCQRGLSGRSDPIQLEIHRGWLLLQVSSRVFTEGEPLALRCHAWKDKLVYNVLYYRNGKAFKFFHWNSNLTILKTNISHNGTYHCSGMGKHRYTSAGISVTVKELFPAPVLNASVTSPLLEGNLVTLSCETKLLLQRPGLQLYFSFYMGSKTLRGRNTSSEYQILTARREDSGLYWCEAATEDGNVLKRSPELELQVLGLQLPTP
Chain of FcγRIIA-R131 (human) (P12318 36-218 H167R limits assumed): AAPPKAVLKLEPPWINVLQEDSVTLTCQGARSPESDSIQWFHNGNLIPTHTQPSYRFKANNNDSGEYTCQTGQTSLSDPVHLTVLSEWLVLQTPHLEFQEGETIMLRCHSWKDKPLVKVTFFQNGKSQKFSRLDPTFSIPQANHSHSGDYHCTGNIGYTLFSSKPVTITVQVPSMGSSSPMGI
Chain of IgG4 SPLE (antibody of Tables 1a and 1b, specificity not named) (Fc): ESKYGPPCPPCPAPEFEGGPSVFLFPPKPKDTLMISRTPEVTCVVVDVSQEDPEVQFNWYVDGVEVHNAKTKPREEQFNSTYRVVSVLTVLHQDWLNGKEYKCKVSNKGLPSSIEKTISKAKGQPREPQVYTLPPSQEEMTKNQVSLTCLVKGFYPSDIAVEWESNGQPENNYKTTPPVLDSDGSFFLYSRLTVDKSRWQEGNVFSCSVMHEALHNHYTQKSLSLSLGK

Substance	pKd [1]	pKd [2]	pKd [3]
IgG4 SPLE (antibody of Tables 1a and 1b, specificity not named)	5.00	–	–
IgG1 P329A ge (antibody of Table 1a, specificity not named)	5.36	8.10	5.74
IgG1 P329G ge (antibody of Table 1a, specificity not named)	–	8.00	–

Next, values leading:

pKd [1]	pKd [2]	pKd [3]	Substance
–	8.22	–	IgG1 P329G (antibody of Tables 1a and 1b, specificity not named)
–	8.24	–	anti-CD20 antibody IgG1 P329G
